Starred links: 1 amine or outer side, 2 acyl side, 3 side chain; linkers in the order of their positions; H or OH if unused. Positions of bridges follow the written chain, without caps; N, C: chain ends. Non-standard residues stand in square brackets, D forms with d. *: point of attachment. cholesteryl‑oxycarbonylmethyl = CC(C)CCC[C@@H](C)[C@H]1CC[C@H]2[C@@H]3CC=C4C[C@@H](OC(=O)C*)CC[C@]4(C)[C@H]3CC[C@]12C; pXylylene = c1cc(C[*:2])ccc1C[*:1]; Palmitoyl = CCCCCCCCCCCCCCCC(=O)*; Suc = O=C(CCC(=O)[*:2])[*:1]; Hexanoyl = CCCCCC(=O)*; Butyryl = CCCC(=O)*
B1: peptide 86 (peptide)
peptide: Hexanoyl-ECYLACIEELIRKAQEQQEKNEAALR-NH2
modifications: linker 2-6 via pXylylene
SMILES: CCCCCC(=O)N[C@@H](CCC(=O)O)C(=O)N[C@H]1CSCc2ccc(cc2)CSC[C@@H](C(=O)N[C@H](C(=O)N[C@@H](CCC(=O)O)C(=O)N[C@@H](CCC(=O)O)C(=O)N[C@@H](CC(C)C)C(=O)N[C@H](C(=O)N[C@@H](CCCNC(=N)N)C(=O)N[C@@H](CCCCN)C(=O)N[C@@H](C)C(=O)N[C@@H](CCC(N)=O)C(=O)N[C@@H](CCC(=O)O)C(=O)N[C@@H](CCC(N)=O)C(=O)N[C@@H](CCC(N)=O)C(=O)N[C@@H](CCC(=O)O)C(=O)N[C@@H](CCCCN)C(=O)N[C@@H](CC(N)=O)C(=O)N[C@@H](CCC(=O)O)C(=O)N[C@@H](C)C(=O)N[C@@H](C)C(=O)N[C@@H](CC(C)C)C(=O)N[C@@H](CCCNC(=N)N)C(N)=O)[C@@H](C)CC)[C@@H](C)CC)NC(=O)[C@H](C)NC(=O)[C@H](CC(C)C)NC(=O)[C@H](Cc2ccc(O)cc2)NC1=O
B2: peptide 82 (peptide)
peptide: Suc-ECYLRCIEELIRKAQEQQEKNEAALRGSGC(cholesteryl‑oxycarbonylmethyl)-NH2
modifications: linker 2-6 via pXylylene
SMILES: CC[C@H](C)[C@H](NC(=O)[C@H](CC(C)C)NC(=O)[C@H](CCC(=O)O)NC(=O)[C@H](CCC(=O)O)NC(=O)[C@@H](NC(=O)[C@@H]1CSCc2ccc(cc2)CSC[C@H](NC(=O)[C@H](CCC(=O)O)NC(=O)CCC(=O)O)C(=O)N[C@@H](Cc2ccc(O)cc2)C(=O)N[C@@H](CC(C)C)C(=O)N[C@@H](CCCNC(=N)N)C(=O)N1)[C@@H](C)CC)C(=O)N[C@@H](CCCNC(=N)N)C(=O)N[C@@H](CCCCN)C(=O)N[C@@H](C)C(=O)N[C@@H](CCC(N)=O)C(=O)N[C@@H](CCC(=O)O)C(=O)N[C@@H](CCC(N)=O)C(=O)N[C@@H](CCC(N)=O)C(=O)N[C@@H](CCC(=O)O)C(=O)N[C@@H](CCCCN)C(=O)N[C@@H](CC(N)=O)C(=O)N[C@@H](CCC(=O)O)C(=O)N[C@@H](C)C(=O)N[C@@H](C)C(=O)N[C@@H](CC(C)C)C(=O)N[C@@H](CCCNC(=N)N)C(=O)NCC(=O)N[C@@H](CO)C(=O)NCC(=O)N[C@@H](CSCC(=O)O[C@H]1CC[C@@]2(C)C(=CC[C@H]3[C@@H]4CC[C@H]([C@H](C)CCCC(C)C)[C@@]4(C)CC[C@@H]32)C1)C(N)=O
B3: peptide 84 (peptide)
peptide: Ac-ACYAACIEALIRAAREQQEKNEAALR-NH2
modifications: linker 2-6 via pXylylene
SMILES: CC[C@H](C)[C@H](NC(=O)[C@H](CC(C)C)NC(=O)[C@H](C)NC(=O)[C@H](CCC(=O)O)NC(=O)[C@@H](NC(=O)[C@@H]1CSCc2ccc(cc2)CSC[C@H](NC(=O)[C@H](C)NC(C)=O)C(=O)N[C@@H](Cc2ccc(O)cc2)C(=O)N[C@@H](C)C(=O)N[C@@H](C)C(=O)N1)[C@@H](C)CC)C(=O)N[C@@H](CCCNC(=N)N)C(=O)N[C@@H](C)C(=O)N[C@@H](C)C(=O)N[C@@H](CCCNC(=N)N)C(=O)N[C@@H](CCC(=O)O)C(=O)N[C@@H](CCC(N)=O)C(=O)N[C@@H](CCC(N)=O)C(=O)N[C@@H](CCC(=O)O)C(=O)N[C@@H](CCCCN)C(=O)N[C@@H](CC(N)=O)C(=O)N[C@@H](CCC(=O)O)C(=O)N[C@@H](C)C(=O)N[C@@H](C)C(=O)N[C@@H](CC(C)C)C(=O)N[C@@H](CCCNC(=N)N)C(N)=O
B4: peptide 88 (peptide)
peptide: Suc-ECYLRCIEELIRKAQEQQEKNEAALRGSGK(Palmitoyl)-NH2
modifications: linker 2-6 via pXylylene
SMILES: CCCCCCCCCCCCCCCC(=O)NCCCC[C@H](NC(=O)CNC(=O)[C@H](CO)NC(=O)CNC(=O)[C@H](CCCNC(=N)N)NC(=O)[C@H](CC(C)C)NC(=O)[C@H](C)NC(=O)[C@H](C)NC(=O)[C@H](CCC(=O)O)NC(=O)[C@H](CC(N)=O)NC(=O)[C@H](CCCCN)NC(=O)[C@H](CCC(=O)O)NC(=O)[C@H](CCC(N)=O)NC(=O)[C@H](CCC(N)=O)NC(=O)[C@H](CCC(=O)O)NC(=O)[C@H](CCC(N)=O)NC(=O)[C@H](C)NC(=O)[C@H](CCCCN)NC(=O)[C@H](CCCNC(=N)N)NC(=O)[C@@H](NC(=O)[C@H](CC(C)C)NC(=O)[C@H](CCC(=O)O)NC(=O)[C@H](CCC(=O)O)NC(=O)[C@@H](NC(=O)[C@@H]1CSCc2ccc(cc2)CSC[C@H](NC(=O)[C@H](CCC(=O)O)NC(=O)CCC(=O)O)C(=O)N[C@@H](Cc2ccc(O)cc2)C(=O)N[C@@H](CC(C)C)C(=O)N[C@@H](CCCNC(=N)N)C(=O)N1)[C@@H](C)CC)[C@@H](C)CC)C(N)=O
B5: peptide 85 (peptide)
peptide: Butyryl-ECYLACIEELIRKAQEQQEKNEAALR-NH2
modifications: linker 2-6 via pXylylene
SMILES: CCCC(=O)N[C@@H](CCC(=O)O)C(=O)N[C@H]1CSCc2ccc(cc2)CSC[C@@H](C(=O)N[C@H](C(=O)N[C@@H](CCC(=O)O)C(=O)N[C@@H](CCC(=O)O)C(=O)N[C@@H](CC(C)C)C(=O)N[C@H](C(=O)N[C@@H](CCCNC(=N)N)C(=O)N[C@@H](CCCCN)C(=O)N[C@@H](C)C(=O)N[C@@H](CCC(N)=O)C(=O)N[C@@H](CCC(=O)O)C(=O)N[C@@H](CCC(N)=O)C(=O)N[C@@H](CCC(N)=O)C(=O)N[C@@H](CCC(=O)O)C(=O)N[C@@H](CCCCN)C(=O)N[C@@H](CC(N)=O)C(=O)N[C@@H](CCC(=O)O)C(=O)N[C@@H](C)C(=O)N[C@@H](C)C(=O)N[C@@H](CC(C)C)C(=O)N[C@@H](CCCNC(=N)N)C(N)=O)[C@@H](C)CC)[C@@H](C)CC)NC(=O)[C@H](C)NC(=O)[C@H](CC(C)C)NC(=O)[C@H](Cc2ccc(O)cc2)NC1=O

Target: gp41 of HIV-1 strain HXB2D with mutation V38A (HIV-1 strain HXB2D, UniProt P04578)
Experiment: cell-based or functional assay

Binder | fold change in EC50, HIV-HXB2D V38A mutant [fold]
B1 | 2
Ac-ACYAACIEALIRAAQEQQEKNEAALR-NH2 (linker 2-6 via 1,4‑dimethylnaphthyl) [peptide 89] | 75
B2 | 1
B3 | 9
B4 | 1
Ac-ACYAA[dC]IEALIRAAQEQQEKNEAALR-NH2 (linker 2-6 via pXylylene; not fully specified) [peptide 83] | 6
B5 | 3
Ac-ANYAALIEALIRKAQEQQEKNEAALR-NH2 [peptide 5] | 53

Reference: patent publication US20140357577A1, “HIV Membrane Fusion Inhibitors” (priority 2011, published 2014)
